Experimental data: patent US20190292256A1, “Compounds and Methods to Measure Metabolic Function and Restore Normal Metabolic Function” (priority 2010, published 2019)
Blank lines part the entries; values can stand above or below the molecule they belong to.

Tests used:
Type in all cases: cell-based, mouse
[1] = system: 3T3-L1 adipocytes; assay: Sfrp5 and adiponectin transcript expression in 3T3-L1 adipocytes treated with stress agents (QRT-PCR); details: differentiated 3T3-L1 adipocytes, 24 h; TNFα 10 ng/ml, H2O2 0.2 mM, tunicamycin 5 μg/ml
Experimental: (§1) Mouse 3T3-L1 cells (ATCC) were maintained in DMEM with 10% fetal bovine serum (FBS) and differentiated into adipocytes by treatment with DMEM supplemented with 5 μg/ml of insulin, 0.5 mM 1-methyl-3-isobutyl-xanthin, and 1 μM dexamethazone. At day 7 after differentiation, 3T3-L1 adipocytes were treated with tunicamycin, H2O2, TNFα or vehicle for 24 h. Peritoneal macrophages from lean WT C57BL/6 mice were maintained in DMEM supplemented 10% FBS and placed in DMEM with 0.5% FBS for 16 h for serum starvation. Macrophages were incubated in the conditioned media from 3T3-L1 adipocytes transduced with adenoviral vectors in the presence of Wnt5a protein (200 ng/ml) or vehicle for 24 h. In some experiments, cells were pretreated with SP600125 (15 μM) or vehicle for 1 h followed by treatment with Wnt5a protein.
(§2) Epididymal fat pads from male wild-type C57BL/6 mice fed a normal diet were excised, minced in PBS and digested with 1 mg/ml collagenase Type 1 (Worthington Chemical Corporation) at 37° C. for 30 min. The digested fat tissue was filtered through a mesh and centrifuged at 1000 rpm for 5 min to separate floating adipocytes from the SV fraction. Measurement of mRNA Levels Gene expression level was quantified by real-time PCR. Total RNA was prepared with the use of a Qiagen kit. cDNA was produced using ThermoScript RT-PCR Systems (Invitrogen). PCR was performed on iCycler iQ Real-Time PCR Detection System (Bio-Rad) using SYBR Green 1 as a double standard DNA specific dye (Applied Biosystems).

[2] = system: phosphorylation of JNK in adipocytes; assay: Wnt5a-stimulated JNK phosphorylation in 3T3-L1 adipocytes (immunoblot); details: Wnt5a 30 min
Experimental: as §1

[3] = system: TOPflash reporter activity (canonical Wnt signaling); assay: TOPflash luciferase reporter assay in 3T3-L1 adipocytes; details: Wnt5a 200 ng/ml 24 h, AdTRE-Sfrp5 transduction
Experimental: 3T3-L1 adipocytes were transduced with adenoviral vectors for 24 h and co-transfected with a TOPflash (Upstate) construct and a Renilla luciferase control plasmid (pRL-SV40, Promega) to normalize for transfection efficiency. After transfection, cells were treated with Wnt5a protein (200 ng/ml) or vehicle. Cells were lysed and analyzed on a luminometer by using dual luciferase assay kit (Promega).

[4] = system: JNK phosphorylation in macrophages; assay: Wnt5a-stimulated JNK phosphorylation in peritoneal macrophages (immunoblot); details: in conditioned media from Ad-β-gal-treated 3T3-L1 adipocytes, 30 min
Experimental: as §1, with “Macrophages were incubated in the conditioned media from 3T3-L1 adipocytes transduced with adenoviral vectors in the presence of Wnt5a protein (200 ng/ml) or vehicle for 24 h.” left out

[5] = system: TNFα and IL-6 transcript expression by macrophages; assay: Wnt5a-stimulated TNFα and IL-6 transcript expression in peritoneal macrophages (QRT-PCR); details: Wnt5a 200 ng/ml, 24 h
Experimental: as §1
as §2, with “PCR was performed on iCycler iQ Real-Time PCR Detection System (Bio-Rad) using SYBR Green 1 as a double standard DNA specific dye (Applied Biosystems).” left out

[6] = system: IL-6 expression in adipocytes; assay: Wnt5a-stimulated IL-6 expression in 3T3-L1 adipocytes (QRT-PCR); details: Wnt5a 200 ng/ml 24 h
Experimental: as §1
as §2, with “PCR was performed on iCycler iQ Real-Time PCR Detection System (Bio-Rad) using SYBR Green 1 as a double standard DNA specific dye (Applied Biosystems).” left out

Molecule: OO [hydrogen peroxide]
Sfrp5 transcript levels [1]: significantly reduced
transcript level of adiponectin [1]: down-regulated

Molecule: TNFα
Sfrp5 transcript levels [1]: significantly reduced
transcript level of adiponectin [1]: down-regulated

Molecule: tunicamycin
Sfrp5 transcript levels [1]: significantly reduced
transcript level of adiponectin [1]: down-regulated

effect on TOPflash reporter activity [3]: neither Sfrp5 nor Wnt5a had an effect
B1: Wnt5a: recombinant mouse Wnt5a protein produced in CHO cells, purchased from R&D Systems (protein)
chain: IIGAQPLCSQLAGLSQGQKKLCHLYQDHMQYIGEGAKTGIKECQYQFRHRRWNCSTVDNTSVFGRVMQIGSRETAFTYAVSAAGVVNAMSRACREGELSTCGCSRAARPKDLPRDWLWGGCGDNIDYGYRFAKEFVDARERERIHAKGSYESARILMNLHNNEAGRRTVYNLADVACKCHGVSGSCSLKTCWLQLADFRKVGDALKEKYDSAAAMRLNSRGKLVQVNSRFNSPTTQDLVYIDPSPDYCVRNESTGSLGTQGRLCNKTSEGMDGCELMCCGRGYDQFKTVQTERCHCKFHWCCYVKCKKCTEIVDQFVCK
phosphorylation of JNK in adipocytes [2]: stimulatory effects
JNK phosphorylation in macrophages [4]: stimulated
IL-6 transcript expression by macrophages [5]: increased
TNFα transcript expression by macrophages [5]: increased
IL-6 expression in adipocytes [6]: stimulatory effects

effect on TOPflash reporter activity [3]: neither Sfrp5 nor Wnt5a had an effect
B2: Sfrp5: secreted frizzled-related protein 5, here overexpressed in adipocytes by AdTRE-Sfrp5 transduction (protein, UniProt Q9WU66 22-314, looked up)
Secreted frizzled-related …: APTRGQEYDYYGWQAEPLHGRSYSKPPQCLDIPADLPLCHTVGYKRMRLPNLLEHESLAEVKQQASSWLPLLAKRCHSDTQVFLCSLFAPVCLDRPIYPCRSLCEAARAGCAPLMEAYGFPWPEMLHCHKFPLDNDLCIAVQFGHLPATAPPVTKICAQCEMEHSADGLMEQMCSSDFVVKMRIKEIKIDNGDRKLIGAQKKKKLLKAGPLKRKDTKKLVLHMKNGASCPCPQLDNLTGSFLVMGRKVEGQLLLTAVYRWDKKNKEMKFAVKFMFSYPCSLYYPFFYGAAEPH
